Measured values: patent US20180171024A1

Tests used:
[1] = target: HLA-A2/TyrD-S16 on T2 cells (human); assay: flow cytometry, T2 cells loaded with TyrD S16 [..], 10 µg/ml
[2] = target: HLA-A2/DUSP5 on T2 cells (human); assay: flow cytometry, T2 cells loaded with DUSP5 peptide
[3] = target: HLA-A2 on cells (tumor cell lines, normal primary cells, PBMCs) (human); assay: flow cytometry, Fib cells
[4] = target: HLA-A2/Tyrosinase369-377 complex on cells (human); assay: flow cytometry, T2 cells loaded with TyrD peptide ([..] printed under the label), 10 µg/ml
[5] = target: HLA-A2/TyrD-S14 on T2 cells (human); assay: flow cytometry, T2 cells loaded with TyrD S14 [..], 10 µg/ml
[6] = target: HLA-A2 on cells (tumor cell lines, normal primary cells, PBMCs) (human); assay: flow cytometry, A375 melanoma cells, 10 µg/ml
[7] = target: HLA-A2 on cells (tumor cell lines, normal primary cells, PBMCs) (human); assay: flow cytometry, H2228 cells, 10 µg/ml
[8] = target: HLA-A2/M1 on T2 cells (human); assay: flow cytometry, T2 cells loaded with M1 peptide
[9] = target: HLA-A2 on cells (tumor cell lines, normal primary cells, PBMCs) (human); assay: flow cytometry, CCRF-SB cells, 10 µg/ml
[10] = target: HLA-A2 on cells (tumor cell lines, normal primary cells, PBMCs) (human); assay: flow cytometry, Loucy cells
[11] = target: HLA-A2/CMV on T2 cells (human); assay: flow cytometry, T2 cells loaded with CMV peptide
[12] = target: HLA-A2 on cells (tumor cell lines, normal primary cells, PBMCs) (human); assay: flow cytometry, PANC-1 pancreatic carcinoma cells, 10 µg/ml
[13] = target: HLA-A2 on cells (tumor cell lines, normal primary cells, PBMCs) (human); assay: flow cytometry, SKMEL5 cells
[14] = target: HLA-A2/Tyrosinase369-377 complex on cells (human); assay: flow cytometry, T2 cells loaded with TYR peptide
[15] = target: HLA-A2 on unloaded T2 cells (human); assay: flow cytometry, T2 cells
[16] = target: HLA-A2 on cells (tumor cell lines, normal primary cells, PBMCs) (human); assay: flow cytometry, PBMCs #YE, 10 µg/ml
[17] = target: HLA-A2/Tyrosinase369-377 complex on cells (human); assay: flow cytometry, T2 cells loaded with TyrD [..], 10 µg/ml
[18] = target: HLA-A2/SSX-2 on T2 cells (human); assay: flow cytometry, T2 cells loaded with SSX2 [..], 10 µg/ml
[19] = target: Unloaded T2 (Homo sapiens); assay: flow cytometry, unloaded T2 cells, PE anti-mouse
[20] = target: HLA-A2 on cells (tumor cell lines, normal primary cells, PBMCs) (human); assay: flow cytometry, 624.38 melanoma cells, 10 µg/ml
[21] = target: HLA-A2 on cells (tumor cell lines, normal primary cells, PBMCs) (human); assay: flow cytometry, A375 melanoma cells, 10 µg/ml; remark: listed apart in the source
[22] = target: HLA-A2/TyrD-S12 on T2 cells (human); assay: flow cytometry, T2 cells loaded with TyrD S12 [..], 10 µg/ml
[23] = target: HLA-A2 on cells (tumor cell lines, normal primary cells, PBMCs) (human); assay: flow cytometry, SK-Mel-5 melanoma cells, 10 µg/ml
[24] = target: HLA-A2 on unloaded T2 cells (human); assay: flow cytometry, unloaded T2 cells, 10 µg/ml
[25] = target: HLA-A2 on cells (tumor cell lines, normal primary cells, PBMCs) (human); assay: flow cytometry, endothelial cells HUE-1, 10 µg/ml
[26] = target: HLA-A2 on cells (tumor cell lines, normal primary cells, PBMCs) (human); assay: flow cytometry, astrocytes 1800, 10 µg/ml
[27] = target: HLA-A2/Gag on T2 cells (human); assay: flow cytometry, T2 cells loaded with GAG peptide
[28] = target: HLA-A2 on cells (tumor cell lines, normal primary cells, PBMCs) (human); assay: flow cytometry, WM-115 melanoma cells, 10 µg/ml
[29] = target: HLA-A2/WT1 126-134 complex on T2 cells (human); assay: flow cytometry, T2 cells loaded with WT1 1x10e-4M in DMSO
[30] = target: HLA-A2 on cells (tumor cell lines, normal primary cells, PBMCs) (human); assay: flow cytometry, A498 cells, 10 µg/ml
[31] = target: HLA-A2/TyrD-S4 on T2 cells (human); assay: flow cytometry, T2 cells loaded with TyrD S4 [..], 10 µg/ml
[32] = target: HLA-A2/WT1 126-134 complex on T2 cells (human); assay: flow cytometry, T2 cells loaded with WT1 peptide
[33] = target: HLA-A2/GPLD1 on T2 cells (human); assay: flow cytometry, T2 cells loaded with GPLD1 [..], 10 µg/ml
[34] = target: HLA-A2/ARHGAP on T2 cells (human); assay: flow cytometry, T2 cells loaded with ARHGAP peptide
[35] = target: HLA-A2/TyrD-S21 on T2 cells (human); assay: flow cytometry, T2 cells loaded with TyrD-S21 [..], 10 µg/ml
[36] = target: HLA-A2/TyrD-S17 on T2 cells (human); assay: flow cytometry, T2 cells loaded with TyrD-S17 [..], 10 µg/ml
[37] = target: HLA-A2 on HLA-A2+/WT1+ BV173 cells (WT1 mRNA positive; WT1 126-134 peptide not detected by mass spectrometry of eluted HLA peptides); assay: flow cytometry on BV173 cells (WT1 mRNA +)
[38] = target: HLA-A2 on cells (tumor cell lines, normal primary cells, PBMCs) (human); assay: flow cytometry, colonic smooth muscle cells #2940, 10 µg/ml
[39] = target: HLA-A2/209M on T2 cells (human); assay: flow cytometry, T2 cells loaded with 209M peptide
[40] = target: HLA-A2 on cells (tumor cell lines, normal primary cells, PBMCs) (human); assay: flow cytometry, colonic smooth muscle cells 2940, 10 µg/ml
[41] = target: HLA-A2/KPNA1 on T2 cells (human); assay: flow cytometry, T2 cells loaded with KPNA1 [..], 10 µg/ml

For BB7.2 (antibody), the MFI relative to background [1] was 421, the MFI [2] was 2470 and the GeoMean [3] was 613. It also gave an MFI relative to background [4] of 848, an MFI relative to background [5] of 565 and an MFI [6] of 196. For the same substance, the MFI [7] was 210, the MFI [8] was 1990 and the MFI [9] was 902. The GeoMean [10] was 734, the MFI [11] was 2400 and the MFI [12] was 242. It also gave a GeoMean [13] of 281, an MFI [14] of 2200 and a GeoMean [15] of 1380. It also gave an MFI [16] of 366, an MFI relative to background [17] of 561 and an MFI relative to background [18] of 1280. For the same substance, the MFI [19] was 1050, the MFI [20] was 311 and the MFI [21] was 174. It also gave an MFI relative to background [22] of 532, an MFI [23] of 118 and an MFI relative to background [24] of 417. It also gave an MFI [25] of 133, an MFI [26] of 590 and an MFI [27] of 1840. The MFI [28] was 215, the MFI [29] was 722 and the MFI [30] was 170. It also gave an MFI relative to background [31] of 543, an MFI [32] of 2320 and an MFI relative to background [33] of 364. The MFI [34] was 2580, the MFI relative to background [35] was 654 and the MFI relative to background [36] was 444. It also gave an MFI [37] of 962, an MFI [38] of 744 and an MFI [39] of 2870. For the same substance, the MFI [40] was 563 and the MFI relative to background [41] was 729.
